This note sets out measurements from patent US20110033462A1 (published 2011).

The target in experiment [1] is T1, JEV SA14-14-2 envelope (E) protein on virions (Japanese encephalitis virus strain …, UniProt P0DOH7 295-794).
T1 chain: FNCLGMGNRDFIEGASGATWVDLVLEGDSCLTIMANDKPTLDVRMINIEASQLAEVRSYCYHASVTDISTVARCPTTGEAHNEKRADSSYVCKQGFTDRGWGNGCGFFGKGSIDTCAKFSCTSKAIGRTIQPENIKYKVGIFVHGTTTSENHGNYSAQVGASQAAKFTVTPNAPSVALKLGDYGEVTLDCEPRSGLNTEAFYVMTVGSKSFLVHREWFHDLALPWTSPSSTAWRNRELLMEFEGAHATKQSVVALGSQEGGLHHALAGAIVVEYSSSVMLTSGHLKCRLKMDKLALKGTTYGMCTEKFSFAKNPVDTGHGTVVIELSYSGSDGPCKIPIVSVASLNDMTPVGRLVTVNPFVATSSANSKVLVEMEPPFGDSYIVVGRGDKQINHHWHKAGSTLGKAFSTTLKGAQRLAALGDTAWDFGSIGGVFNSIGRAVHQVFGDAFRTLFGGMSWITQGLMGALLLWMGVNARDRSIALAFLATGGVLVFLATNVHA
Nature of the experiment: ELISA on JEV virions (FIG. 4A), half maximum binding. (ELISA stands for enzyme-linked immunosorbent assay.)

In experiment [2] the target is T1, JEV SA14-14-2 envelope (E) protein on …. Nature of the experiment: cell-based or functional assay.
Experiment [3] has the same target. Description: cell-based or functional assay.
For experiment [4], the target named is T2, recombinant JEV N-terminal 80% E protein (Japanese encephalitis virus strain …, UniProt P0DOH7 295-692).
T2 chain: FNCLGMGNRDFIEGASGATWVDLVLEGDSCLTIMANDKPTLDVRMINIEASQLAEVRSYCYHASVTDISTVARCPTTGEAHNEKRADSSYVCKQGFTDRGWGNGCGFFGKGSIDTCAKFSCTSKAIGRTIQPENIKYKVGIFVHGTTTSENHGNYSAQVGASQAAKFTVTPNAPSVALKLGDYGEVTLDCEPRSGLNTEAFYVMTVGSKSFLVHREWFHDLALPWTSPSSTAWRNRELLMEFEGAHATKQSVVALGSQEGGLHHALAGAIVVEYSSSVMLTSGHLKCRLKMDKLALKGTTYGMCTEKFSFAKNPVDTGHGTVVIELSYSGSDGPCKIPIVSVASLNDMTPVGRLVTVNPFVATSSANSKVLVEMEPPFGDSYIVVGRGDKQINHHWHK
Description: SPR (Biacore 3000), recombinant E immobilized, Fab in flow. In general terms: SPR reads the build-up and loss of mass on a sensor chip optically.

For experiment [5], the target named is T1, JEV SA14-14-2 envelope (E) protein on …. Nature of the experiment: ELISA on JEV virions captured by HMAF, concentration at half-maximal binding.
Experiment [6] has the same target. Description: cell-based or functional assay.
The target of a further experiment is T3, DENV-4 (814669) virions (dengue virus type 4, strain 814669, UniProt P09866 280-774).
T3 construct: mature
T3 sequence (P09866 280-774 limits assumed): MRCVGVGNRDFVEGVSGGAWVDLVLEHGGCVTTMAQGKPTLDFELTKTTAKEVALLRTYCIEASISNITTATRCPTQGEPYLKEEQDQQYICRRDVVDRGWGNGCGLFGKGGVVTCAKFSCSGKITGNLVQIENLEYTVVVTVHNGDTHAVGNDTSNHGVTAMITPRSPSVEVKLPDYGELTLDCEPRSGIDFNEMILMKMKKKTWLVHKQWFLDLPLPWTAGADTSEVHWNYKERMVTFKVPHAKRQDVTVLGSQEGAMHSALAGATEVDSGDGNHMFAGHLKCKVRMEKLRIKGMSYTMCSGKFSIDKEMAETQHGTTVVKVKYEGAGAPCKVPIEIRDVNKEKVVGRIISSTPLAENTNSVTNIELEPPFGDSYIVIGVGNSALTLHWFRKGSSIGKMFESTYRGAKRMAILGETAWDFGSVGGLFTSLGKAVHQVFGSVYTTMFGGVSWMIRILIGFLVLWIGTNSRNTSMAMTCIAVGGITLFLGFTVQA
Nature of the experiment: ELISA, virion-coated plate.

A further experiment concerns the target T4, DENV-3 (H87) virions (dengue virus type 3, strain H87, UniProt P27915 281-773).
T4 construct: mature
Description: ELISA, virion-coated plate.

Experiment [7] deals with T5, Langat virus (LGTV) strain TP 21 virions (Langat virus, strain TP 21, UniProt P29837 281-776).
T5 construct: mature
T5 sequence: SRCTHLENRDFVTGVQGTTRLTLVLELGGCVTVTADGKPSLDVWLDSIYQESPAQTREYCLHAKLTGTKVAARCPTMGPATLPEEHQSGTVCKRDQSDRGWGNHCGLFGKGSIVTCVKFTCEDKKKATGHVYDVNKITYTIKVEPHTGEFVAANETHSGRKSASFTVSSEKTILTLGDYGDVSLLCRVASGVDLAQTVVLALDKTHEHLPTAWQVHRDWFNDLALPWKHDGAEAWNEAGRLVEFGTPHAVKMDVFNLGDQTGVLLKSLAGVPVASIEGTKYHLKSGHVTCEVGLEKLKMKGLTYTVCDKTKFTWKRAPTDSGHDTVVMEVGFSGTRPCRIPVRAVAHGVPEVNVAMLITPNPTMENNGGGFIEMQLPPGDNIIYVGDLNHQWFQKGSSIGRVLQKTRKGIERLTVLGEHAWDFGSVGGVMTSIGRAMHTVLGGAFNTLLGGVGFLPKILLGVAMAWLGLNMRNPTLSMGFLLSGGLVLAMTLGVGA
Description: ELISA, virion-coated plate.

For experiment [8], the target named is T1, JEV SA14-14-2 envelope (E) protein on …. Description: ELISA, virion-coated plate, Fab from ~100 µg/ml.
The target is the same in experiment [9]. Nature of the experiment: cell-based or functional assay.
The target is the same in experiment [10]. Description: cell-based or functional assay.
Experiment [11] has as its target JEV strain JE 1991 (genotype I) E protein on virus (Japanese encephalitis virus, strain JE …). Nature of the experiment: cell-based or functional assay.
In experiment [12] the target is JEV strain Beijing (genotype III) E protein on virus (Japanese encephalitis virus, strain …). Nature of the experiment: cell-based or functional assay.
The target of experiment [13] is JEV strain JKT 9092 (genotype IV) E protein on virus (Japanese encephalitis virus, strain JKT …). Nature of the experiment: cell-based or functional assay.
Experiment [14] has as its target JEV strain JE B 1034/8 (genotype II) E protein on virus (Japanese encephalitis virus, strain JE …). Description: cell-based or functional assay.
The target in experiment [15] is T1, JEV SA14-14-2 envelope (E) protein on …. Description: cell-based or functional assay.
For experiment [16] the target is unchanged. Nature of the experiment: ELISA on JEV virions.
Experiment [17] has as its target T2, recombinant JEV N-terminal 80% E protein. Description: SPR, recombinant E immobilized.

Read-outs that look alike come from different tables or passages of the source.

B1: Fab E3 (Fab, V domains shown)
VH: EVQLLESGPGLVRPSQTLSLTCAVSGASISGPLSYWTWIRQSPGKKMEHIGSMFYSGNTYYNPSLKGRITMSVDTSRNQFSLNLNSVTVADTAVYFCARRRETELFGLPIDYWGQGILVTVSS
VL: ELTQSPATLSVSPGERATLSCRASERISSSYLSWYQQKPGQAPRLLMYGTSTRATGIPARFSGSGSGTDFTLTISSLQPEDFAVYFCQQDYNLPWTFGQGTKLEIKR
On to B1, for which the EC50 (in general, the concentration that produces a half-maximal response) in experiment [1] was roughly 100 nM. Also, in [2], the “PRNT50” value was 84.9 nM. Further, the “PRNT50 titer” value in experiment [3] and in experiment [6] was 84.9 nM throughout. Moreover, the Kd (in general, the concentration at which binding is half-saturated) in [4] is 0.35 nM; in experiment [5] it was 0.98 nM. For the same molecule, in experiment [4], the dissociation rate constant (koff) – broadly, the rate constant with which the complex falls apart – came out at 3.6e-05 s⁻¹. The on-rate (kon) (as a rule, a measure of how fast the partners come together) in experiment [4] was found to be 100000 M⁻¹ s⁻¹. In addition, the “ELISA titer (1/log10 dilution)” value with DENV-4 (814669) virions was less than 1 log10 reciprocal dilution; with DENV-3 (H87) virions, less than 1 log10 reciprocal dilution; in experiment [8] it was 4.2 log10 reciprocal dilution. The binding result (with DENV-4 (814669) virions; with DENV-3 (H87) virions; in [7]) was “no binding” in each case.

B2: humanized MAb E3 (antibody, V domains shown)
VH: B1 VH
VL: B1 VL
As to B2, the “PRNT50 (µg/ml) of MAb 1 alone” value in experiment [9] stood at 0.09 µg/mL. Besides, in experiment [10], the “PRNT50” value was 0.09 µg/mL. The “PRNT50 titer” value in experiment [11] came to 0.21 nM; in [3], 0.93 nM; in experiment [12] it was 0.71 nM; in [13], 0.36 nM; in experiment [14], 0.14 nM. Besides, the Kd in experiment [5] was found to be 0.31 nM. The “occupancy of accessible antibody sites on the virion at neutralization” value (“occupancy of accessible antibody sites” for short) in experiment [15] came to 66%.

B3: Fab B2 (Fab, V domains shown)
VH: VQLLEQSGSEVKKPGASVKVSCKASGYPFTDYAMSWVRQAPGQGLEYMGWIFTNSGNPTYAPGFAGRFVFSLDISVNTAYLHIDSLKPEDTAVYYCARGIVTPAASGDYFDSWGQGTLVTVSS
VL: ELVLTQSPSSLSASIGDRVTITCRASQHISSWLAWYQQKPGKAPKPLIYAASSLKSGVPSRFSGSGSGTDFTLTISGLQPEDFATYYCQQYENSPVTFGGGTKVEIKR
On to B3, for which, in experiment [1], the EC50 is roughly 0.5 nM. Also, the “PRNT50” value in experiment [2] came out at 0.25 nM. The Kd in experiment [16] is 0.15 nM; in experiment [4], 110 nM; in experiment [5] it was 0.28 nM. Moreover, the “PRNT50 titer” value in [3] and in experiment [6] was 0.25 nM in each case. In [17], the “fold faster off-rate than Fab A3 or E3” value is greater than 120 fold. Besides, the “fold weaker Kd than Fab A3 or E3” value in experiment [17] was greater than 150 fold. Besides, the koff in [4] turned out to be 0.0046 s⁻¹. The kon in experiment [4] is 42000 M⁻¹ s⁻¹. Besides, the “ELISA titer (1/log10 dilution)” value was less than 1 log10 reciprocal dilution in the experiment with DENV-4 (814669) virions, less than 1 log10 reciprocal dilution with DENV-3 (H87) virions and 4.2 log10 reciprocal dilution in experiment [8]. For the same molecule, the binding result (in the experiment with DENV-4 (814669) virions; with DENV-3 (H87) virions; in experiment [7]) was “no binding” throughout.

B4: humanized MAb B2 (antibody, V domains shown)
VH: B3 VH
VL: B3 VL
With B4, the “PRNT50 (µg/ml) of MAb 1 alone” value in experiment [9] was determined as 0.005 µg/mL. In addition, the “PRNT50” value in [10] was determined as 0.005 µg/mL. Moreover, the “PRNT50 titer” value in experiment [11] is 0.02 nM; in [3], 0.03 nM; in [12], 0.02 nM; in experiment [13] it was 2 nM; in [14] it was 0.02 nM. Moreover, the Kd in experiment [5] is 0.08 nM. The “occupancy of accessible antibody sites” value in experiment [15] was roughly 28%.

B5: Fab A3 (Fab, V domains shown)
VH: EVQLLESGAEVKKPGSSVRISCKVSGTPYSSYVMNWVRQAPGQGLEWMGVFVPSLDRALYAQNFQGRLSITADTTTTYMELTSLKFEDTAVYYCATDFSVGWLRPLDRWGQGTLVTVSS
VL: ELQMTQSPSSLSASVGDRVTITCRASQGISNYLAWYQQKPGKAPKLLIYYASRLESGVPSRFSGSGSGTDYTLTISSLQPEDFATYYCQQYNSNPFTFGPGTKVDIKR
With B5, in experiment [1], the EC50 is roughly 10 nM. In experiment [2], the “PRNT50” value was determined as 2.55 nM. Also, the “PRNT50 titer” value in [3] and in [6] was 2.55 nM throughout. Also, the Kd in experiment [4] came out at 0.72 nM; in experiment [5] it was 0.45 nM. In experiment [4], the koff turned out to be 2.8e-05 s⁻¹. In [4], the kon was 40000 M⁻¹ s⁻¹. Also, the “ELISA titer (1/log10 dilution)” value with DENV-4 (814669) virions was less than 1 log10 reciprocal dilution; in the experiment with DENV-3 (H87) virions, less than 1 log10 reciprocal dilution; in [8] it was 4.7 log10 reciprocal dilution. For the same molecule, the binding result (with DENV-4 (814669) virions; in the experiment with DENV-3 (H87) virions; in experiment [7]) was “no binding” throughout.

B6: humanized MAb A3 (antibody, V domains shown)
VH: B5 VH
VL: B5 VL
Turning to B6, the “PRNT50 (µg/ml) of MAb 1 alone” value in experiment [9] stood at 0.04 µg/mL. Further, in experiment [10], the “PRNT50” value stood at 0.04 µg/mL. In addition, the “PRNT50 titer” value in [11] was 0.04 nM; in [3] it was 0.2 nM; in [12], 0.2 nM; in [13] it was 0.07 nM; in experiment [14], 0.04 nM. In experiment [5], this molecule displayed a Kd of 0.15 nM. In experiment [15], the “occupancy of accessible antibody sites” value is 45%.
